Measured values: patent US20220106405A1 (YEDA RESEARCH AND DEVELOPMENT, published 2022)
One block for each binder: values may come before it.

Columns and labels:
MMP-7 zymogen / pro form = molecular target: T1, MMP-7 zymogen / pro form (UniProt P09237 18-267, limits assumed); test: dot blot
T1 construct: domain: zymogen/pro form; Recombinant zymogen on the dot blot and in ELISA; also called MMP-7 pro form; zymogen form of the enzyme
T1 sequence (looked up): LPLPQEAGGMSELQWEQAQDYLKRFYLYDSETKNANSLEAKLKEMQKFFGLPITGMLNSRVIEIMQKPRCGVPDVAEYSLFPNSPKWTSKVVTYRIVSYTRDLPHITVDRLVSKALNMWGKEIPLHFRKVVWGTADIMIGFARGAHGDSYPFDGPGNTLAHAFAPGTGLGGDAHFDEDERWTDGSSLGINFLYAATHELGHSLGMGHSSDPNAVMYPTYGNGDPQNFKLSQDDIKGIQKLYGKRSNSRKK
Method: A dot blot was performed by immobilizing 1, 1.5 and 2 μg zymogen and activated MMP-7 recombinant enzyme on nitrocellulose membrane pre wetted with TBST using a vacuum based manifold 96 well dot-blot system (GE 10447900 Minifold dot blot). The blocking was performed for 1 hour at room temperature with 3% BSA in TBST. The membrane was then probed for binding by antibody eluted in the earlier step by incubating overnight. The anti MMP-7 mAb used was at 2 ug/ml concentration in TBST. The membrane after 3 washes in TBST was incubated with goat anti mouse HRP antibody and developed using ECL to determine the selectivity of binding towards catalytic form only.
Only antibodies that were capable of binding to the activated form of MMP-7 and not the zymogen were selected for further development (i.e. selected for fusion and developed to generate monoclonal antibodies). This was carried out by dot blot analysis using a nitrocellulose membrane coated with varying concentrations of active MMP-7 and its zymogen respectively.

MMP-9 = MMP-9 (UniProt P14780 107-707, limits assumed); test: ELISA, MMP-coated plate
Chain of MMP-9 (P14780 107-707 limits assumed): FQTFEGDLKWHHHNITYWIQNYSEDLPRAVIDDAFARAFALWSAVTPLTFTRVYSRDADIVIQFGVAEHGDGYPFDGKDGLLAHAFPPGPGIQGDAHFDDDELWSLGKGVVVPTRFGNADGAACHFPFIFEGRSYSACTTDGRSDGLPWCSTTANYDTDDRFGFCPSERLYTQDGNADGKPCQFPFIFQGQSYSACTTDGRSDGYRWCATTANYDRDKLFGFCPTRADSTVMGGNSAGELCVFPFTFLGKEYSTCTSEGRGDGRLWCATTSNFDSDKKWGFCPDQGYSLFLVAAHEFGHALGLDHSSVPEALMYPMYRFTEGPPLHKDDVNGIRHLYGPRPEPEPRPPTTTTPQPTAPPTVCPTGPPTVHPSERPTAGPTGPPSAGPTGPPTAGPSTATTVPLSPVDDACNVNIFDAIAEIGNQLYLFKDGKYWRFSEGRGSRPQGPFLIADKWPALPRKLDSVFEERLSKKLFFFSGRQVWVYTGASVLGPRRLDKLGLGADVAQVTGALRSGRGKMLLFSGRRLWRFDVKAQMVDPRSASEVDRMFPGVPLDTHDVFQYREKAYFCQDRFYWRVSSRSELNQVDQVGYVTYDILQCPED
Method: (§1) MMP-7 Elisa binding assay: A 96-well plate (Nunc) was coated with MMP at 5 mg/ml. […] The bound Fab fragment/full length was detected using a goat anti-Fab/anti-mouse antibody followed by peroxidase-conjugated bovine anti-goat antibody according to standard procedures. A four-parametric sigmoidal curve-fitting analysis was used to calculate the half-maximal effective concentration.
(§2) The lack of binding to a panel of other MMPs helped measure the novel antibody's affinity to epitopes specifically unique to MMP-7.

MMP-14 = MMP-14 (UniProt P50281 112-538, limits assumed); test: ELISA, MMP-coated plate
Method: as §1, §2

MMP-12 = MMP-12 (UniProt P39900 106-263, limits assumed); test: ELISA, MMP-coated plate
Chain of MMP-12 (P39900 106-263 limits assumed): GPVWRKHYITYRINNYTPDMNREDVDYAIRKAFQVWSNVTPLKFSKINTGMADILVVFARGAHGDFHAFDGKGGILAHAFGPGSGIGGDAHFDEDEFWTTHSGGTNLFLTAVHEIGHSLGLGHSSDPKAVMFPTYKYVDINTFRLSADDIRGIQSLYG
Method: as §1, §2

MMP-13 = MMP-13 (UniProt P45452 104-471, limits assumed); test: ELISA, MMP-coated plate
Method: as §1, §2

[1] = molecular target: T2, recombinant human MMP-7 activated form (catalytic domain) (human, UniProt P09237 95-267); test: ELISA on MMP-coated plate, four-parametric sigmoidal fit
T2 construct: domain: catalytic domain; Contains the catalytic zinc; also called MMP-7 active enzyme
T2 sequence (looked up): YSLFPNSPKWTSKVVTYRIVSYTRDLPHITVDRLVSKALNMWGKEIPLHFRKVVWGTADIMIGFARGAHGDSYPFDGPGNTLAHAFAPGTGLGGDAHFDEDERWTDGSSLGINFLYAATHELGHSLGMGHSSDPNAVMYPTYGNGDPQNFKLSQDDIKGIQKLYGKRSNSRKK
Method: as §1, §2

[2] = molecular target: T2, recombinant human MMP-7 activated form …; test: enzyme inhibition, fluorogenic peptide Mca-Pro-Leu-Gly-Leu-Dpa-Ala-Arg-NH2, 10 nM MMP-7, 37 C
Method: The enzymatic reaction was initiated by addition of the fluorogenic peptide to a final concentration of 10 μM. Fluorescence was recorded immediately and continuously for 30 min.
Remarkably, considering that the immunization booster also included the common zinc motif, the antibody is fully selective for MMP-7. […] Simultaneously the effect of the antibody on catalytic activity of related MMPs was measured. The catalytic activities in vitro of MMP-9, -14 and -12 were either not affected or in the case of MMP-14 only negligibly affected by the anti MMP-7 Fab treatment (FIG. 2D).

binding result (MMP-7 zymogen / pro form): no binding | binding result (MMP-9): no binding | binding result (MMP-14): no binding | binding result (MMP-12): no binding | binding result (MMP-13): no binding | Kd [1]: 43.1 nM
B1: GSM-192 monoclonal antibody (antibody, V domains shown)
VH: EVQLQQSGPELVKPGASVKIPCKASGYTFTDYNMDWMKQSHGKSLEWIGHINPNNGGTFYNQKFKDKATFIVDKSSNTAYMELRSLTSEDTAVYFCARGGGLRRGPFAYWGQGTLVTVS
VL: DIVTQSPASLAVSLGQRATISCRASESFDSYGNTFVHWYQQKPGQPPKLLIYLVSNLESGVPAGFRGRGSRTDFTLTIDPVEADDAATYYCQQNNEDPYTFGGGTKLEIKR
notes: also called anti MMP-7 mAb; anti MMP-7 Ab

Ki [2]: 132 nM
B2: GSM-192 Fab fragment (Fab, V domains shown)
VH: B1 VH
VL: B1 VL
notes: also called anti MMP-7 Fab
